From publication PMC6198510 (2018) come the findings set out here.

Assay [1] concerns the target JK18. Briefly: FP; direct titration.
In assay [2] the target is JK16. The assay can be described thus: FP; direct titration.
Assay [3] addresses JK18. The assay can be described thus: FP.
The target of assay [4] is JK16. Briefly: FP.

B1: c-Jun N-terminal kinase 3 (enzyme)
chain: MSLHFLYYCSEPTLDVKIAFCQGFDKQVDVSYIAKHYNMSKSKVDNQFYSVEVGDSTFTVLKRYQNLKPIGSGAQGIVCAAYDAVLDRNVAIKKLSRPFQNQTHAKRAYRELVLMKCVNHKNIISLLNVFTPQKTLEEFQDVYLVMELMDANLCQVIQMELDHERMSYLLYQMLCGIKHLHSAGIIHRDLKPSNIVVKSDCTLKILDFGLARTAGTSFMMTPYVVTRYYRAPEVILGMGYKENVDIWSVGCIMGEMVRHKILFPGRDYIDQWNKVIEQLGTPCPEFMKKLQPTVRNYVENRPKYAGLTFPKLFPDSLFPADSEHNKLKASQARDLLSKMLVIDPAKRISVDDALQHPYINVWYDPAEVEAPPPQIYDKQLDEREHTIEEWKELIYKEVMNSEEKTKNGVVKGQPSPSGAAVNSSESLPPSSSVNDISSMSTDQTLASDTDSSLEASAGPLGCCR
With B1, the Kd was 4.1 µM in assay [1], 6.7 µM in assay [2], 4.1 µM in assay [3] and 6.7 µM in assay [4].
